Data from the supplement of paper PMC7877785.
± gives the uncertainty stated by the source.

Assay: self-splicing fitness, log relative to wild type (ln ratio); higher = more splicing; Tetrahymena group I intron in knt gene, E. coli kanamycin selection, DiMSum; sequences stand for … in CUCUCU…GGAGGGAAAAGUUAUCAGGCAUGCACCUGGUAGCUAGUCUUUAAACCAAUAGAUUGCAUCGGUUUAAAAGGCAAGACCGUCAAAUUGCGGGAAAGGGGUCAACAGCCGUUCAGUACCAAGUCUCAGGGGAAACUUUGAGAUGGCCUUGCAAAGGGUAUGGUAAUAAGCUGACGGACAUGGUCCUAACCACGCAGCCAAGUCCUAAGUCAACAGAUCUUCUGUUGAUAUGGAUGCAGUUCACAGACUAAAUGUCGGUCGGGGAAGAUGUAUUCUUCUCAUAAGAUAUAGUCGGACCUCUCCUUAAUGGGAGCUAGCGGAUGAAGUGAUGCAACACUGGAGCCGCUGGGAACUAAUUUGUAUGCGAAAGUAUAUUGAUUAGUUUUGGAGUACUCGUGGUCG
In short: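 The eight P1ex-region nucleotides of an intron in the knt kanamycin-resistance gene on pET-22b(+) were all randomised and the library put into E. coli BL21(DE3). Six replicate transformations were grown overnight at 37°C or 30°C on LB agar with or without 25 μg/mL kanamycin, together with 100 μg/mL carbenicillin, 50 μM IPTG and 0.2% rhamnose. Colonies were pooled and amplicon-sequenced on an Illumina HiSeq 2500. Fitness from DiMSum is the error-weighted combination of wild-type-normalised replicate fold changes, kanamycin over none.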

Sequence	self-splicing fitness (ln) (30 °C)	self-splicing fitness (ln) (37 °C)
UCUGAGCAAUAUUACGCAAU	-2.13 ± 0.16	-2.97 ± 0.21
ACAAAGCAAUAUUACGCAGU	-3.46 ± 0.2	-2.78 ± 0.21
UCAUAGCAAUAUUACGUGCA	-1.06 ± 0.082	0.377 ± 0.092
GUAAAGCAAUAUUACGGCAU	-0.176 ± 0.067	-0.287 ± 0.078
GGCUAGCAAUAUUACGUCUU	-0.274 ± 0.075	0.396 ± 0.088
CUAAAGCAAUAUUACGCAGU	-3.13 ± 0.31	-3.43 ± 0.32
UCAGAGCAAUAUUACGACUG	-1.67 ± 0.19	-0.645 ± 0.2
CCCUAGCAAUAUUACGUCGU	-3.42 ± 0.2	-1.43 ± 0.19
UAUAAGCAAUAUUACGGUUA	0.0292 ± 0.084	0.311 ± 0.095
GCUUAGCAAUAUUACGGUUC	-0.635 ± 0.098	-0.185 ± 0.12
UUCUAGCAAUAUUACGAUUU	-1.54 ± 0.16	-1.33 ± 0.15
ACGAAGCAAUAUUACGAGAA	-1.6 ± 0.37	
AAGGAGCAAUAUUACGUGCA	-3.03 ± 0.18	-1.37 ± 0.17
UAGGAGCAAUAUUACGCGCA	-0.955 ± 0.1	-0.414 ± 0.12
GAAAAGCAAUAUUACGAGGU	-3.97 ± 0.14	-2.92 ± 0.13
AACUAGCAAUAUUACGACGA	-0.137 ± 0.066	-0.576 ± 0.074
UGUGAGCAAUAUUACGUACA	-1.04 ± 0.091	-0.41 ± 0.1
GAAGAGCAAUAUUACGUCUC	-2.37 ± 0.37	-1.19 ± 0.49
GUGUAGCAAUAUUACGGAAA	-3 ± 0.28	-1.42 ± 0.27
UGAAAGCAAUAUUACGGUCC	-0.844 ± 0.072	-0.196 ± 0.095
GAGCAGCAAUAUUACGCUUG	-2.4 ± 0.13	-0.209 ± 0.12
CCGCAGCAAUAUUACGGUAC	-3.8 ± 0.17	-2.8 ± 0.2
GUCAAGCAAUAUUACGUUGG	-4.53 ± 0.31	-3.51 ± 0.3
UUGGAGCAAUAUUACGCGGG	-3.26 ± 0.19	-0.733 ± 0.15
UACUAGCAAUAUUACGGCAC	-2.77 ± 0.19	-1.73 ± 0.2

Sequence	self-splicing fitness (ln) (30 °C)	self-splicing fitness (ln) (37 °C)
GCGGAGCAAUAUUACGCUCG	-2.94 ± 0.43	
GGACAGCAAUAUUACGAGCU	-1.01 ± 0.18	0.191 ± 0.19
CAGUAGCAAUAUUACGGGCA	-3.05 ± 0.27	-2.35 ± 0.25
UGACAGCAAUAUUACGCAAA	-2.27 ± 0.18	-1.73 ± 0.2
GCUCAGCAAUAUUACGGCGC	-1.44 ± 0.085	-0.248 ± 0.12
UAGGAGCAAUAUUACGCCUA	-3.16 ± 0.34	-3.02 ± 0.35
UACAAGCAAUAUUACGGUGU	-3.91 ± 0.17	-1.71 ± 0.12
CAUGAGCAAUAUUACGCCCU		-1.18 ± 0.27
CAGCAGCAAUAUUACGCCUA	-0.345 ± 0.076	0.522 ± 0.094
AAAGAGCAAUAUUACGGCAC	-2.72 ± 0.19	-2.01 ± 0.21
CCCGAGCAAUAUUACGACAA	-2.78 ± 0.3	-2.85 ± 0.41
AUAUAGCAAUAUUACGUGUC	-4.06 ± 0.34	-1.88 ± 0.32
AGGAAGCAAUAUUACGUUCC	-2.96 ± 0.39	-2.59 ± 0.48
CAGCAGCAAUAUUACGACAC	-2.83 ± 0.23	-2.45 ± 0.26
CGGUAGCAAUAUUACGGUCA	-0.916 ± 0.092	-0.275 ± 0.084
CUUCAGCAAUAUUACGGUGC	-3.36 ± 0.21	-1.56 ± 0.31
ACGGAGCAAUAUUACGGGUC		-2.58 ± 0.38
AAACAGCAAUAUUACGUAAA	-2.37 ± 0.068	-1.13 ± 0.074
AGGAAGCAAUAUUACGCGGC		-1.98 ± 0.44
CUAAAGCAAUAUUACGAGUC	-4.51 ± 0.3	-2.96 ± 0.31
CUGCAGCAAUAUUACGUAAC	-3.31 ± 0.26	-2.38 ± 0.29
CCAGAGCAAUAUUACGAAAG	-2.45 ± 0.2	-1.47 ± 0.17
UAACAGCAAUAUUACGCGAC	-3.97 ± 0.29	-2.05 ± 0.16
CGAGAGCAAUAUUACGCGGA	-2.34 ± 0.37	-1.37 ± 0.19
CUAAAGCAAUAUUACGACCG	0.565 ± 0.087	0.104 ± 0.11

Sequence	self-splicing fitness (ln) (30 °C)	self-splicing fitness (ln) (37 °C)
GUAAAGCAAUAUUACGAUGC	-0.312 ± 0.11	-0.105 ± 0.11
UUGCAGCAAUAUUACGGUAC	-3.25 ± 0.33	-0.374 ± 0.18
GCCGAGCAAUAUUACGGCGG	-2.62 ± 0.21	-1.91 ± 0.3
AUAUAGCAAUAUUACGAUCA	-1.4 ± 0.16	-0.365 ± 0.22
CUGGAGCAAUAUUACGGUGG	-3.55 ± 0.14	-1.93 ± 0.12
UGUCAGCAAUAUUACGGGCU	-1.7 ± 0.086	-1.4 ± 0.12
UCACAGCAAUAUUACGAGCA	-1.28 ± 0.081	0.102 ± 0.089
UCAUAGCAAUAUUACGACCA	-0.368 ± 0.34	-0.568 ± 0.31
GCUUAGCAAUAUUACGAGUC	-2.18 ± 0.16	-2.22 ± 0.22
AAUAAGCAAUAUUACGGGUA	-2.49 ± 0.21	-1.32 ± 0.14
GUUUAGCAAUAUUACGGGUG	-2.84 ± 0.21	-1.53 ± 0.17
AGUAAGCAAUAUUACGGUAU	-2.52 ± 0.17	-1.35 ± 0.13
CUUCAGCAAUAUUACGCCGG	-2.73 ± 0.34	
AGUCAGCAAUAUUACGAGUA	-2.3 ± 0.13	-1.31 ± 0.1
GACAAGCAAUAUUACGCAAG	-2.27 ± 0.091	-1.75 ± 0.12
GUAGAGCAAUAUUACGCUUA	-0.468 ± 0.087	-0.371 ± 0.1
CUUUAGCAAUAUUACGGUGA		-2.08 ± 0.3
GGGGAGCAAUAUUACGACCA	-0.254 ± 0.14	0.709 ± 0.23
GGUAAGCAAUAUUACGUUGA	-1.76 ± 0.21	-1.03 ± 0.15
GUUUAGCAAUAUUACGUAGC	-1.61 ± 0.2	-0.831 ± 0.17
UCGAAGCAAUAUUACGAGGU	-3.45 ± 0.4	-2.03 ± 0.29
GCUGAGCAAUAUUACGCAAC	-2.18 ± 0.24	-2.11 ± 0.37
UUAUAGCAAUAUUACGCUGU	-3.59 ± 0.37	-1.06 ± 0.37
GCCCAGCAAUAUUACGGUGG	-3.21 ± 0.17	-3.59 ± 0.25
CCAGAGCAAUAUUACGAACU	-3.13 ± 0.35	-1.86 ± 0.35

Sequence	self-splicing fitness (ln) (30 °C)	self-splicing fitness (ln) (37 °C)
CAUCAGCAAUAUUACGCCCC	-1.56 ± 0.21	
CCGUAGCAAUAUUACGGGUU	-3.9 ± 0.17	-1.57 ± 0.16
CAGUAGCAAUAUUACGCGUC	-4.24 ± 0.31	-2.83 ± 0.24
UACGAGCAAUAUUACGUACU	-3.32 ± 0.32	-1.76 ± 0.22
ACCAAGCAAUAUUACGAAUC	-1.48 ± 0.18	-1.4 ± 0.2
AGCAAGCAAUAUUACGUUUC	-4.44 ± 0.25	-2.09 ± 0.15
UUCGAGCAAUAUUACGUUGG	-4.14 ± 0.39	-2.03 ± 0.43
CAGCAGCAAUAUUACGGUUG	-3.04 ± 0.11	-2.62 ± 0.23
AGACAGCAAUAUUACGAAGA	-3.75 ± 0.33	-2.41 ± 0.34
UUUCAGCAAUAUUACGUGUC	-3.73 ± 0.18	-2.04 ± 0.15
GCUAAGCAAUAUUACGGGCG	-0.341 ± 0.12	0.183 ± 0.14
AGUGAGCAAUAUUACGAAAA	-3.16 ± 0.16	-2.23 ± 0.23
ACCAAGCAAUAUUACGCAGU	-3.71 ± 0.22	-2.77 ± 0.28
UGCAAGCAAUAUUACGAAAC		-2.65 ± 0.36
ACGCAGCAAUAUUACGGGUU	-2.19 ± 0.069	-1.92 ± 0.092
CGGUAGCAAUAUUACGCGGC	-3.99 ± 0.24	-2.79 ± 0.25
AUCAAGCAAUAUUACGGCGU	0.235 ± 0.1	0.219 ± 0.11
AUCGAGCAAUAUUACGGGAA	-2.59 ± 0.24	-2.4 ± 0.22
CCUAAGCAAUAUUACGACCU	-3.17 ± 0.35	-2.34 ± 0.31
UCCUAGCAAUAUUACGAGUU	-3.71 ± 0.3	-1.24 ± 0.18
GAGAAGCAAUAUUACGCUGC	-2.78 ± 0.46	-2.26 ± 0.49
GUUUAGCAAUAUUACGGAUU	-1.48 ± 0.097	-0.737 ± 0.12
CUACAGCAAUAUUACGACGC	-3.16 ± 0.34	-2.08 ± 0.27
